Series [1] has as its target T1, Fur (native, not UMPylated) (Escherichia coli K-12 substrain MG1655, UniProt P0A9A9 1-148).
T1 sequence: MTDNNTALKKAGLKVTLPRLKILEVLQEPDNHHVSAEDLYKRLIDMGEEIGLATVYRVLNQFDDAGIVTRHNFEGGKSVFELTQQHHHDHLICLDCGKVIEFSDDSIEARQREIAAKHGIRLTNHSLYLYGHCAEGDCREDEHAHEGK
Nature of the series: EMSA; shift at Fur:DNA molar ratio above 1; no metal addition stated; DNA annealed in 10 mM Tris-HCl pH 7.5, 150 mM NaCl; binding buffer not stated; 20 nM DNA, 37 C 10 min (Methods) vs 10 nmol DNA, 30 C 10 min (Fig. 4 legend); 6%. To be noted: protein: recombinant; tags: His tag removed with PPase (pGL01); chain copies: 2; blunt. On the technique in general: In EMSA bound probe runs differently from free probe, usually more slowly.

Series [2] concerns the molecule itself. The experiment in a line: SEC; 100 ug protein on a Superdex 200 column; a 53-kDa protein and a 22-kDa protein run under the same conditions as controls.

The values that follow come from PMC9239237, “Salmonella Facilitates Iron Acquisition through UMPylation of Ferric Uptake Regulator” (mBio, 2022).

B1: Fur box DNA (dsDNA)
DNA 1: GATAATGATAATGATAATGATAATGATAATGA
DNA 2: TCATTATCATTATCATTATCATTATCATTATC
Regarding B1, the binding result in series [1] is listed as “binds”.

B2: E. coli Fur (ferric uptake regulator) purified from ydiU knockout E. coli, without UMPylation (natural protein, UniProt P0A9A9 1-148, looked up)
chain: MTDNNTALKKAGLKVTLPRLKILEVLQEPDNHHVSAEDLYKRLIDMGEEIGLATVYRVLNQFDDAGIVTRHNFEGGKSVFELTQQHHHDHLICLDCGKVIEFSDDSIEARQREIAAKHGIRLTNHSLYLYGHCAEGDCREDEHAHEGK
notes: Ferric uptake regulator Fur, E. coli K-12 substrain MG1655; fur gene amplified from genomic DNA and cloned into pGL01 (modified pET15b with a PPase cleavage site); also called Fur^dYdiU; native Fur; source: E. coli BL21(DE3) ydiU knockout strain, purified (Ni-NTA, His tag removed by PPase, Superdex 200)
Turning to B2, in series [2], the “stoichiometry N” value came to 2.

By stoichiometry N is commonly meant the number of molecules, sites or subunits per partner or assembly.
